The values that follow come from publication PMC7320145, “Substrate Channeling via a Transient Protein-Protein Complex: The case of D-Glyceraldehyde-3-Phosphate Dehydrogenase and L-Lactate Dehydrogenase” (Scientific Reports, 2020).

The labels stand for the following.
B1: porcine heart L-lactate dehydrogenase (enzyme)
chain: not shown
notes: L-lactate dehydrogenase from porcine heart (phLDH), tetramer; also called phLDH; PhLDH
B2: baker's yeast D-glyceraldehyde-3-phosphate dehydrogenase (enzyme)
chain: VRVAINGFGRIGRLVMRIALSRPNVEVVALNDPFITNDYAAYMFKYDSTHGRYAGEVSHDDKHIIVDGKKIATYQERDPANLPWGSSNVDIAIDSTGVFKELDTAQKHIDAGAKKVVITAPSSTAPMFVMGVNEEKYTSDLKIVSNASCTTNCLAPLAKVINDAFGIEEGLMTTVHSLTATQKTVDGPSHKDWRGGRTASGNIIPSSTGAAKAVGKVLPELQGKLTGMAFRVPTVDVSVVDLTVKLNKETTYDEIKKVVKAAAEGKLKGVLGYTEDAVVSSDFLGDSHSSIFDASAGIQLSPKFVKLVSWYDNEYGYSTRVVDLVEHVAKA
modifications: Homotetramer, apo-enzyme preparation from yeast (NADH added in the binding assays). The isozyme is taken as TDH3 because the cited PDB 3PYM is GAPDH 3. The natural preparation may contain minor …

Series [1] deals with the molecule itself. The series is described as follows: AUC; sedimentation velocity of each enzyme alone at 6 μM; scans at 280 nm, 7 hours at 40,000 x g; SEDFIT with s and Mr as free fit parameters; Mr compared with the mass calculated from the sequence.
Series [2] deals with B2. The series is described as follows: cell-based or functional assay.
Series [3] addresses T1, rabbit muscle D-glyceraldehyde-3-phosphate dehydrogenase (rabbit, UniProt P46406 2-333). The series is described as follows: cell-based or functional assay.
In series [4] the target is B2. The series is described as follows: cell-based or functional assay. The source holds these as a separate data set.
Series [5] deals with T1, rabbit muscle …. Briefly: cell-based or functional assay. The source holds these as a separate data set.
Series [6] addresses B1. Briefly: AUC; sedimentation velocity of a mixture of phLDH and byGAPDH, each 6 μM; 50 mM Tris/HCl, pH = 7.2, 1 mM EDTA, 0.5 mM DTT; scans at 280 nm, 7 hours at 40,000 x g; fit with SEDFIT to a one-component model and compared with a Claverie simulation of 10% association. The note with it: both partners purified.

T1 sequence (P46406 2-333): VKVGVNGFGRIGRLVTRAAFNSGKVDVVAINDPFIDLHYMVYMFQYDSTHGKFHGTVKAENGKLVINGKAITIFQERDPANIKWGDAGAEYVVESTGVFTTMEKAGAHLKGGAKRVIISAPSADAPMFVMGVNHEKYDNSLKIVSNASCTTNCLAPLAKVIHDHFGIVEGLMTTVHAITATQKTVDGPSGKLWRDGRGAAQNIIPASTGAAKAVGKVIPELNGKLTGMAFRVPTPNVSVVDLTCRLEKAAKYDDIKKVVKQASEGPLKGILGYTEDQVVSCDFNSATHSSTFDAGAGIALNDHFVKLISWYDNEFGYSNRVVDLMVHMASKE

Regarding B1, in series [1], the binding result is listed as “binds”. The “apparent KM of phLDH with byGAPDH-NADH complex as substrate (630 μM pyruvate)” value in series [2] amounted to 116 µM. The “apparent KM of phLDH with rmGAPDH-NADH complex as substrate (630 μM pyruvate)” value in series [3] was 59.6 µM. Moreover, in series [4], the “ratio between measured phLDH activity and the calculated free-diffusion activity; 40 μM NADH, byGAPDH 240 to 480 μM of NADH binding sites; ratio rises from 3.5 to 6.1 fold” value is 6.1 fold; the “ratio between measured phLDH activity and the calculated free-diffusion activity; byGAPDH fixed at 480 μM NADH binding sites, NADH decreased from 40 to 10 μM; ratio rises from 5.2 to 6.6 fold” value was 6.6 fold. In addition, in series [5], the “ratio between measured phLDH activity and the calculated free-diffusion activity; 40 μM NADH, rmGAPDH 100 to 240 μM of NADH binding sites; ratio rises from 1.3 to 2.0 fold” value is 2 fold; the “ratio between measured phLDH activity and the calculated free-diffusion activity; rmGAPDH fixed at 200 μM NADH binding sites, NADH decreased from 40 to 10 μM; ratio rises from 1.7 to 2.28 fold” value is 2.28 fold.
Regarding B2, the Kd (as a rule, a measure of binding affinity in units of concentration) in series [6] is ≥ 48.6 µM.
